± gives the uncertainty stated by the source.
B1: library; numbered along this chain (parent)
chain: MEVVDPQQLGMFTEGELMSVGMDTFIHRIDSTEVIYQPRRKRAKLIGKYLMGDLLGEGSYGKVKEVLDSETLCRRAVKILKKKKLRRIPNGEANVKKEIQLLRRLRHKNVIQLVDVLYNEEKQKMYMVMEYCVCGMQEMLDSVPEKRFPVCQAHGYFCQLIDGLEYLHSQGIVHKDIKPGNLLLTTGGTLKISDLGVAEALHPFAADDTCRTSQGSPAFQPPEIANGLDTFSGFKVDIWSAGVTLYNITTGLYPFEGDNIYKLFENIGKGSYAIPGDCGPPLSDLLKGMLEYEPAKRFSIRQIRQHSWFRKKHPPAEAPVPIPPSPDTKDRWRSMTVVPYLEDLHGADEDEDLFDIEDDIIYTQDFTVPGQVPEEEASHNGQRRGLPKAVCMNGTEAAQLSTKSRAEGRAPNPARKACSASSKIRRLSACKQQ

Variants of: B1
Experiment: STK11 functional score (HeLa growth suppression), rescaled enrichment; synonymous median = 1, nonsense median = 0 (normalised score)
Conditions: with HeLa; variant type: missense
Summary of the method: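 The functional score takes the post/pre-selection log ratio, corrects it to wild type, rescales it to synonymous and nonsense medians, and merges it over codons and replicate transfections, with error from bootstrapping. Counts came from tiled gDNA amplicons sequenced on NextSeq (~2 million reads per tile). The libraries were POPCode codon-randomised, codon-optimised STK11 integrated by Bxb1 at an AAVS1 landing pad in HeLa, three regions with three transfections each.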

Variant | STK11 functional score
MEVVDPQQLGMFTEGELMSVGMDTFIHRIDSTEVIYQPRRKRAKLIGKYLMGDLLGEGSYGKVKEVLDSETLCRRAVKILKKKKLRRIPNGEANVKKEIQLLRRLRHKNVIQLVDVLYNEEKQKMYMVMEYCVCGMQEMLDSVPEKRFPVCQAHGYFCQLIDGLEYLHSQGIVHKDIKPGNLLLTTGGTLKISDLGVAEALHPFAADDTCRTSQGSPAFQPPEIANGLDTFSGFKVDIWSAGVTLYNITTGLYPFEGDNIYKLFENIGKGSYAIPGDCGPPLSDLLKGMLEYEPAKRFSIRQIRQHSWFRKKHPPAEAPVPIPPSPDTKDRWRSMTVVPYLEDLHGADEDEDLFDIEDDIIYTQCFTVPGQVPEEEASHNGQRRGLPKAVCMNGTEAAQLSTKSRAEGRAPNPARKACSASSKIRRLSACKQQ [D365C] | 1.51 ± 0.17
MEVVDPQQLGMFTEGELMSVGMDTFIHRIDSTEVIYQPRRKRAKLIGKYLMGDLLGEGSYGKVKEVLDSETLCRRAVKILKKKKLRRIPNGEANVKKEIQLLRRLRHKNVIQLVDVLYNEEKQKMYMVMEYCVCGMQEMLDSVPEKRFPVCQAHGYFCQLIDGLEYLHSQGIVHKDIKPGNLLLTTGGTLKISDLGVAEALHPFAADDTCRTSQGSPAFQPPEIANGLDTFSGFKVDIWSAGVTLYNITTGLYPFEGDNIYKLFENIGKGSYAIPGDCGPPLSDLLKGMLEYEPAKRFSIRQIRQHSWFRKKHPPAEAPVPIPPSPDTKDRWRSMTVVPYLEDLHGADEDEDLFDIEDDIIYTQEFTVPGQVPEEEASHNGQRRGLPKAVCMNGTEAAQLSTKSRAEGRAPNPARKACSASSKIRRLSACKQQ [D365E] | 0.893 ± 0.49
MEVVDPQQLGMFTEGELMSVGMDTFIHRIDSTEVIYQPRRKRAKLIGKYLMGDLLGEGSYGKVKEVLDSETLCRRAVKILKKKKLRRIPNGEANVKKEIQLLRRLRHKNVIQLVDVLYNEEKQKMYMVMEYCVCGMQEMLDSVPEKRFPVCQAHGYFCQLIDGLEYLHSQGIVHKDIKPGNLLLTTGGTLKISDLGVAEALHPFAADDTCRTSQGSPAFQPPEIANGLDTFSGFKVDIWSAGVTLYNITTGLYPFEGDNIYKLFENIGKGSYAIPGDCGPPLSDLLKGMLEYEPAKRFSIRQIRQHSWFRKKHPPAEAPVPIPPSPDTKDRWRSMTVVPYLEDLHGADEDEDLFDIEDDIIYTQFFTVPGQVPEEEASHNGQRRGLPKAVCMNGTEAAQLSTKSRAEGRAPNPARKACSASSKIRRLSACKQQ [D365F] | 0.997 ± 0.31
MEVVDPQQLGMFTEGELMSVGMDTFIHRIDSTEVIYQPRRKRAKLIGKYLMGDLLGEGSYGKVKEVLDSETLCRRAVKILKKKKLRRIPNGEANVKKEIQLLRRLRHKNVIQLVDVLYNEEKQKMYMVMEYCVCGMQEMLDSVPEKRFPVCQAHGYFCQLIDGLEYLHSQGIVHKDIKPGNLLLTTGGTLKISDLGVAEALHPFAADDTCRTSQGSPAFQPPEIANGLDTFSGFKVDIWSAGVTLYNITTGLYPFEGDNIYKLFENIGKGSYAIPGDCGPPLSDLLKGMLEYEPAKRFSIRQIRQHSWFRKKHPPAEAPVPIPPSPDTKDRWRSMTVVPYLEDLHGADEDEDLFDIEDDIIYTQAFTVPGQVPEEEASHNGQRRGLPKAVCMNGTEAAQLSTKSRAEGRAPNPARKACSASSKIRRLSACKQQ [D365A] | 0.704 ± 0.15
MEVVDPQQLGMFTEGELMSVGMDTFIHRIDSTEVIYQPRRKRAKLIGKYLMGDLLGEGSYGKVKEVLDSETLCRRAVKILKKKKLRRIPNGEANVKKEIQLLRRLRHKNVIQLVDVLYNEEKQKMYMVMEYCVCGMQEMLDSVPEKRFPVCQAHGYFCQLIDGLEYLHSQGIVHKDIKPGNLLLTTGGTLKISDLGVAEALHPFAADDTCRTSQGSPAFQPPEIANGLDTFSGFKVDIWSAGVTLYNITTGLYPFEGDNIYKLFENIGKGSYAIPGDCGPPLSDLLKGMLEYEPAKRFSIRQIRQHSWFRKKHPPAEAPVPIPPSPDTKDRWRSMTVVPYLEDLHGADEDEDLFDIEDDIIYTYDFTVPGQVPEEEASHNGQRRGLPKAVCMNGTEAAQLSTKSRAEGRAPNPARKACSASSKIRRLSACKQQ [Q364Y] | 1.53 ± 0.17
MEVVDPQQLGMFTEGELMSVGMDTFIHRIDSTEVIYQPRRKRAKLIGKYLMGDLLGEGSYGKVKEVLDSETLCRRAVKILKKKKLRRIPNGEANVKKEIQLLRRLRHKNVIQLVDVLYNEEKQKMYMVMEYCVCGMQEMLDSVPEKRFPVCQAHGYFCQLIDGLEYLHSQGIVHKDIKPGNLLLTTGGTLKISDLGVAEALHPFAADDTCRTSQGSPAFQPPEIANGLDTFSGFKVDIWSAGVTLYNITTGLYPFEGDNIYKLFENIGKGSYAIPGDCGPPLSDLLKGMLEYEPAKRFSIRQIRQHSWFRKKHPPAEAPVPIPPSPDTKDRWRSMTVVPYLEDLHGADEDEDLFDIEDDIIYTVDFTVPGQVPEEEASHNGQRRGLPKAVCMNGTEAAQLSTKSRAEGRAPNPARKACSASSKIRRLSACKQQ [Q364V] | 1.11 ± 0.14
MEVVDPQQLGMFTEGELMSVGMDTFIHRIDSTEVIYQPRRKRAKLIGKYLMGDLLGEGSYGKVKEVLDSETLCRRAVKILKKKKLRRIPNGEANVKKEIQLLRRLRHKNVIQLVDVLYNEEKQKMYMVMEYCVCGMQEMLDSVPEKRFPVCQAHGYFCQLIDGLEYLHSQGIVHKDIKPGNLLLTTGGTLKISDLGVAEALHPFAADDTCRTSQGSPAFQPPEIANGLDTFSGFKVDIWSAGVTLYNITTGLYPFEGDNIYKLFENIGKGSYAIPGDCGPPLSDLLKGMLEYEPAKRFSIRQIRQHSWFRKKHPPAEAPVPIPPSPDTKDRWRSMTVVPYLEDLHGADEDEDLFDIEDDIIYTWDFTVPGQVPEEEASHNGQRRGLPKAVCMNGTEAAQLSTKSRAEGRAPNPARKACSASSKIRRLSACKQQ [Q364W] | 0.791 ± 0.5
